# B1: CA2: anti-tau clone, Table 10; SEQ ID NO: 363 (protein)
# chain: QVQLQESGPSLVKPSQTLSLTCTVSGFSLSSVAVNWVRQAPGKVPEWLGGIISNGGTGYNPALKSRLSITRDTSKSQVSLALTHVTTEDTAVYYCGRGVEWEGSMDYLGPGLLVTVSSEGKSSGSGSETKVDDQSVLTQPSSVSGFLGQRVTITCSGSSSNVGAGSYVGWYQQVPGSGLRILIYGATKRASGLPDRFSGSRSGNTATLTISSLQAEDEADYYCVSYQTDFTLVFGSGTRLTVLG
# modifications: CA2 amino acid sequence
# B2: CA4: anti-tau core clone, Table 10; SEQ ID NO: 368 (protein)
# scFv: QVQLQESGPSLVKPSQTLSLTCTVSGFSLTSYSVYWVRQAPGQALEWISIMYASGRVDYNPALKSRLSITRDTSKSQFSLSLSSVTTEDTAVYYCTRGIENWGPGLLVTVSSEGKSSGASGESKVDDDIQVTQSPSSLSASLTERVSITCRTSQSVNNYLSWYQQKPGQAPKLLIYYATRLYTDVPSRFSGSGSGTDYTLTITSLEADDTATYYCLQYDSTPLAFGGGTNVEIK
# modifications: CA4 amino acid sequence
# B3: S1G2 mAb: S1G2 reformatted; heavy chain SEQ ID NO: 457, light chain 458 (antibody)
# heavy: QVQLQESGPSLVKPSQTLSLTCTVSGFSLTSNSVGWVRQAPGKAPEWVAGIDTDGEEGYNPALNSRLSITRDTSKSQVSLSLSSVTSEDTAVYYCGRSYRADGLAYGYVQAIDYWGPGLLVTVSSAKTTAPSVYPLAPVCGDTTGSSVTLGCLVKGYFPEPVTLTWNSGSLSSGVHTFPAVLQSDLYTLSSSVTVTSSTWPSQSITCNVAHPASSTKVDKKIEPRGPTIKPCPPCKCPAPNLLGGPSVFIFPPKIKDVLMISLSPIVTCVVVDVSEDDPDVQISWFVNNVEVHTAQTQTHREDYNSTLRVVSALPIQHQDWMSGKEFKCKVNNKDLPAPIERTISKPKGSVRAPQVYVLPPPEEEMTKKQVTLTCMVTDFMPEDIYVEWTNNGKTELNYKNTEPVLDSDGSYFMYSKLRVEKKNWVERNSYSCSVVHEGLHNHHTTKSFSRTPGK
# light: QAVVTQPSSVSGSLGQRVSITCSGSFIGISSVGWFQQLPGSGLRTIIVASDGRPSGVPDRFSMSKSGNTATLTISSLQAEDEADYFCGSSDRTPYTGVFGSGTRLTVLGGQPKSSPSVTLFPPSSEELETNKATLVCTITDFYPGVVTVDWKVDGTPVTQGMETTQPSKQSNNKYMASSYLTLTARAWERHSSYSCQVTHEGHTVEKSLSRADCS
# modifications: S1G2 mAB Heavy Chain; S1G2 mAB Light Chain
# B4: CA9: anti-tau clone, Tables 2 and 10; SEQ ID NO: 371 (protein)
# scFv: QVQLQESGPSLVKPSQTLSLTCTVSGFSLTSNSVGWVRQAPGKAPEWVAGIDTDGEEGYNPALNSRLSITRDTSKSQVSLSLSSVTSEDTAVYYCGRSYRSDGLAYGYVQAIDYWGPGLLVTVSSEGKSSGASGESKVDDQAVLTQPASVSGSLGQRVSITCSGSFIGISSVGWFQQLPGSGLRTIIVASDGRPSGVPDRFSMSKSGNTATLTISSLQAEDEADYFCGSSDRTQYTGVFGSGTRLTVLG
# modifications: CA9 amino acid sequence
# Assays:
# hT40 = target: T1, hT40 (Homo sapiens, UniProt P10636); test: Sandwich ELISA limits of detection (LoD) of antibody pairs; format: binding
# T1 construct: Full length tau (hT40)
# From the text: The diverse panel of high affinity anti-tau antibodies (scAb and mAb formats) were paired in various combinations and tested in a Sandwich (or Capture) ELISA format to calculate their limits of detection (LoD) and their ability to differentiate between different tau species. Biologically, tau exists in 6 different isoforms and is subjected to numerous post translational modifications, some of them playing a significant role in the progression of neurodegeneration.
# For Sandwich ELISA using colourimetric detection, 96 well Maxisorp plates were coated with the capture antibody S1D12 mAb at 1 μg/ml for 1 h at RT followed by blocking with 2% MPBS as normal. Full length tau (hT40), at 1 μg/ml starting concentration was added to designated wells and double diluted across rest of the plates and left to incubate at R/T for 1 h. A series of detection scAbs with varying epitope recognition properties were added at 10 μg/ml to designated wells (FIG. 22). For colourimetric detection HRP conjugated anti-HuCk secondary antibody was used and the resulting immunoreaction was developed and absorbance at 450 nm measured as described previously. Cut-off point for a positive binding event was an absorbance value of 0.3 following background subtraction. In order to enhance the assay sensitivity, a chemiluminescent detection method was adopted where 50 μL SuperSignal ELISA Femto Substrate (Thermo Scientific) was added to each well following incubation with anti-HuCK HRP antibody and subsequent washing. The luminescence was read using Clariostar Plus microplate reader. A further modification to this protocol was done where various detection scAbs were directly conjugated with HRP and detected using chemiluminescent protocol as before. The lowest levels of detection achieved using different detection scAbs and a comparison of colourimetric and chemiluminescent methods of detection are shown in Table 28
# Similarly, a sandwich ELISA format was set up using S1G2 mAb at 1 μg/ml as the capture antibody and HRP conjugated S1D12 mAb for detection. The assay was conducted using chemiluminescent protocol described above.
# [1] = test system: hT40, dGA, dGAE and truncated tau fragments; test: Binding ELISA / epitope mapping of anti-tau scAbs with truncated tau proteins and 13mer peptides; parameters: species or system human; conditions: for Tau proteins/fragments with positive scAb reactivity / Shortest region bound on hT40: Table 17, 'C' group scAbs; for Tau proteins/fragments with positive scAb reactivity: binding ELISA; for Shortest region bound on hT40: incl. 13mer peptides; for Detection scAb (Epitope): Table 28 (LoD table)
# Procedure, shortened: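 Serially double-diluted scAbs were applied to 2% MPBS-blocked wells carrying either 1 μg/ml full-length or truncated tau, or biotinylated 13mer peptides (1 μg/ml) captured on 5 μg/ml streptavidin. Absorbance after HRP anti-human C kappa secondary gave the binding signal.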
# [2] = target: T2, hT40 (T441, SEQ ID NO: 1) (Homo sapiens, UniProt P10636); test: Biacore X100 SPR kinetics of scAbs for hT40; format: binding; conditions: Table 23; scAb captured, T441 (hT40) analyte; 1:1 model
# T2 construct: Full length tau (hT40)
# Procedure, shortened: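 Captured scAb on anti-HuCk CM5 surface (flow cell 1 as reference) in HBS-EP+, capture set for theoretical RMax 100 RU; hT40 injected multi-cycle (0.15625–100 nM) or single-cycle (6.25–100 nM), 120 s association, 420 s dissociation, glycine pH 2.0 regeneration. Kinetics and affinity from 1:1 binding model fit.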
# dGAE aggregates = dGAE aggregates (Homo sapiens, UniProt P10636); test: Epitope occlusion assay: dGAE aggregation with/without LMTM, 423 mAb capture ELISA; format: biochemical; conditions: total and supernatant samples; 423 mAb capture
# Description: During dGAE aggregation in vitro, scAb binding regions on dGA/dGAE are ‘hidden’ or ‘occluded’ which leads to a loss of immunoreactivity in aggregation samples. Here we have shown the occlusion of binding regions in aggregated dGAE samples and the recovery of immunoreactivity in the presence of LMTM, a tau-aggregation inhibitor. For preparing the aggregates, 10 μl 10 mM DTT was added to 1000 μl 100 μM dGAE and agitated with/without LMTM (1:5 ratio) at 700 rpm for 24 h at 37° C. Following overnight agitation, one third of each sample was kept aside as ‘total’ and the rest was spun down at 16000×g for 30 min and separated into ‘supernatant’ and ‘pellet’. The pellet was then resuspended in half the original volume for further experiments. […] Doubling dilutions of dGAE aggregate ‘total’, ‘supernatant’ and ‘pellet’ samples at 10 μg/ml starting concentration were added to designated wells in doubling dilutions in 1×PBS. dGAE monomer (non-aggregated) was included as assay control. All double dilutions were done in final volumes of 100 μl. This was left to incubate on lab bench for 1 h followed by the addition of test scAbs at 10 μg/ml. Anti-HuCk HRP labelled secondary antibody was added as described previously and ELISA data generated is represented using the graph below.
# htau40 = target: T3, htau40 (Homo sapiens, UniProt P10636); test: Biacore X100 SPR kinetics of anti-tau mAbs on immobilised htau40; format: binding
# T3 construct: Full length tau (hT40)
# Description: For anti-tau mAb SPR measurements, htau40 was conjugated to the surface of a CM5 sensor chip using amine coupling as explained previously. Briefly, 2 μg/mL htau40 in 10 mM Sodium acetate buffer (pH 4.0) was passed over the activated chip surface (EDC/NHS) in flow cell 2 for a period for 45 s followed by blocking with 1 M ethanolamine-HCl PH 8.5. Flow cell 1 was set up as reference control and blocked simultaneously. Final immobilisation level of htau40 (Rmax) was approximately 250 RU. Following a minimum of three start-up cycles, increasing concentrations (0.78 nM-25 nM) of the mAb in HBS-EP+ buffer was added at a rate of […] to the chip. The mAb was added for a 120 s association period and 600 s dissociation period followed by a regeneration cycle of 30 s injection of glycine buffer pH 1.5 in between each cycle. Binding responses were analysed in Biacore X100 evaluation software and data fitted to a 1:1 binding model to obtain kinetic and affinity characterisation.
# For anti-tau mAb SPR measurements (Biacore X100™) and epitope mapping, the same methodologies described above (see Example 16) were followed. Kinetic rates and equilibrium binding constants of additional anti-tau mAbs and the regions recognised on hT40 are given in the Table 25 below
# [3] = test system: 13 aa tau peptides of hT40; test: Alanine scanning mutagenesis (ASM) peptide ELISA; format: binding, human; conditions: alanine substituted peptides; numbering SEQ ID NO: 1
# Description: Briefly, 5 μg/ml streptavidin (Thermo Fisher) was adsorbed to Nunc 96-well MaxiSorp plates and following incubation at 37° C. for 1 h, the plates were washed as normal and blocked with 2% MPBS. N-terminally biotinylated peptides (Prolmmune Ltd) were added to the plates and incubated for 1 h at 37° C. Subsequently, test scAbs at starting concentrations of 100-500 nM was added and double diluted across the plate for each peptide and incubated for 1 h at 37° C. Rest of the ELISA was conducted as described above and the plates were read at absorbance 450 nm. Immunoreactivity of the scAb of interest was quantified as the % of scAb was bound for each peptide at a chosen concentration (FIG. 15-20).
# [4] = residue numbers of SEQ ID NO: 1 (hT40), CDR Tables 1-11
# [5] = Table 27, mAb format, immobilised htau40
# T1 sequence (P10636 1-441 isoform P10636-8): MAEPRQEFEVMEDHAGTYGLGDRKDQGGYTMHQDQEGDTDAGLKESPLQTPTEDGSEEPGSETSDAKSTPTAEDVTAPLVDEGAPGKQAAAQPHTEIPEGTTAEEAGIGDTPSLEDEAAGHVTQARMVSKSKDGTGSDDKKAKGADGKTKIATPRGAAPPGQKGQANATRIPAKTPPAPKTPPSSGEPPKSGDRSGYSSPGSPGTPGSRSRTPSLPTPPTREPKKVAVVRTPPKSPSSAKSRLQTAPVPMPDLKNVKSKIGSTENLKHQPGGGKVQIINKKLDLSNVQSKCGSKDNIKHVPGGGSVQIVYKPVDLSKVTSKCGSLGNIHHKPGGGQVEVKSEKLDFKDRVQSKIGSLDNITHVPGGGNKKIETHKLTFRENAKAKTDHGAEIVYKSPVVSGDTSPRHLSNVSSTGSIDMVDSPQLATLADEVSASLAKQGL
# T3 sequence (P10636 1-441 isoform P10636-8): as above
# Sequence of dGAE aggregates (P10636 614-708): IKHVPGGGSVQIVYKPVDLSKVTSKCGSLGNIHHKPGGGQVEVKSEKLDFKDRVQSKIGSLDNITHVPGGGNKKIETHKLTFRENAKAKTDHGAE
# T2 sequence (P10636 1-441 isoform P10636-8): as the sequence (P10636 1-441 isoform P10636-8) above
Molecule,"LoD (ng/ml) chemiluminescence detection (hT40; S1D12 mAb capture, hT40, SuperSignal ELISA Femto Substrate)","LoD (ng/ml) colourimetric detection (hT40; S1D12 mAb capture, hT40, detection scAb 10 μg/ml, anti-HuCk HRP)",Tau proteins/fragments with positive scAb reactivity [1],Shortest region bound on hT40 [1],Detection scAb (Epitope) ([1]; residues of hT40),"Epitope [1, 4]",ka [2],kd [2],"Epitope ([1]; Table 26 summary, top scAbs, residues of hT40)","Binding regions on hT40 ([1]; Table 33, core binding scAbs tested in epitope occlusion assays)",immunoreactivity to dGAE aggregation samples prepared in the presence of LMTM (dGAE aggregates),ka (htau40; [5]),kd (htau40; [5]),"Kd (htau40; as quoted in Example 32, read-out: affinity)",critical binding residues [3],"LOD for hT40 (hT40; S1G2 mAb capture, HRP labelled S1D12 mAb detection, chemiluminescence)"
B1,0.37 ng/mL,6 ng/mL,"hT40, 1-49, 1-319, 1-155, 186-350, 348-441",1-155,CA2 (100-155),1-155,,,,,,,,,,
B2,,,"hT40, 239-441, 297-390 (dGA)",355-367,CA4 (355-367),355-367,458100 M⁻¹ s⁻¹,0.001654 s⁻¹,355-367,355-367,increase in immunoreactivity,1.02e+06 M⁻¹ s⁻¹,0.001276 s⁻¹,3 nM,"358 (D), 360 (I), 361 (T), 362 (H) and/or 364 (P)",
B3,,,,,,,,,,,,,,,,~1 ng/mL
B4,,,"hT40, 239-441, 348-441, 297-390 (dGA)",367-379,,,,,,,increase in immunoreactivity,,,,"370 (K), and/or 374 (H)",

# — patent publication US20250355001A1, “METHOD FOR DETECTING A TAU PROTEIN FRAGMENT IN A SAMPLE” (GTINVENT LIMITED, priority 2022, published 2025)
